The target of experiment [1] is wild-type human GP130 on HEK293.STAT3.Luc.GP130 reporter cells (human) (UniProt P40189). The experiment in a line: cell-based or functional assay.
The target in experiment [2] is full length human GP130 (L2V natural variant) on HEK293/Stat3-luc/gp130-2X Sort cells (human) (UniProt P40189). The experiment in a line: FACS, 200 nM antibody on HEK293/gp130 2X Sort cells. (In general: In flow cytometry, cells or beads pass a laser one at a time.)
The target of experiment [3] is extracellular domain of human LEPR, GPI-anchored, on HEK293/hLEPR-GPI cells (human) (UniProt P48357). Put plainly: FACS, 200 nM antibody on HEK293/hLEPR-GPI cells, 1 µM Leptin.
Chain of extracellular domain of human LEPR, GPI-anchored, on HEK293/hLEPR-GPI cells (human) (P48357 22-839 limits assumed): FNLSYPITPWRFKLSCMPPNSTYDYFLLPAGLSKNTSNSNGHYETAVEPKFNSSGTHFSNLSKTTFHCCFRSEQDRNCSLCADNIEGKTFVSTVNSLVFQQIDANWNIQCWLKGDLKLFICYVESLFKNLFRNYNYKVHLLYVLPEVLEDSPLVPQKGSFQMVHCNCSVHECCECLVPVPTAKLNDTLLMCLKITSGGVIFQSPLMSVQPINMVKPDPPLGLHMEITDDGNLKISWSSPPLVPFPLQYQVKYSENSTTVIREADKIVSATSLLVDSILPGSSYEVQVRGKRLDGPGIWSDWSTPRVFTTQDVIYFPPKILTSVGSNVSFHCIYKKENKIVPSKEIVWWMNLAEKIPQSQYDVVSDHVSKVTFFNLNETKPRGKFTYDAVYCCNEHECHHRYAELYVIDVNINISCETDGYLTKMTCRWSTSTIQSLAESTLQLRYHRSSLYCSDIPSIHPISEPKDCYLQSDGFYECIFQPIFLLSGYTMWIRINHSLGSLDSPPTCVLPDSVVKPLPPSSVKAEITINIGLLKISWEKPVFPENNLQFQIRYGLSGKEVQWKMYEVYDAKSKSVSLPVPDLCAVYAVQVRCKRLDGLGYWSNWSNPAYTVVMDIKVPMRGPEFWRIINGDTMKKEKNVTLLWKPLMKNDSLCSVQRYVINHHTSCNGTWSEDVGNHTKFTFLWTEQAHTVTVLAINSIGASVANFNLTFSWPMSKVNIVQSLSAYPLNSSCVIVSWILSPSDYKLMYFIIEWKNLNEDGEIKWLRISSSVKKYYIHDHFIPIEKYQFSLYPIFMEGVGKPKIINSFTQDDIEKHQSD
For experiment [4] the target is unchanged. Put plainly: FACS, 200 nM antibody on HEK293/hLEPR-GPI cells, no Leptin.
Experiment [5] has as its target mutant human LEPR (Y1141F) on HEK293.STAT3.Luc.GP130.hLEPR (Y1141F) cells (human) (UniProt P48357). Put plainly: cell-based or functional assay.
Experiment [6] has as its target extracellular domain of human LEPR, GPI-anchored, on HEK293/hLEPR-GPI cells (human) (UniProt P48357). Put plainly: FACS, secondary antibody alone on HEK293/hLEPR-GPI cells, no Leptin.
The target is the same in experiment [7]. The experiment in a line: FACS, secondary antibody alone on HEK293/hLEPR-GPI cells, 1 µM Leptin.
Experiment [8] concerns the target full length human GP130 (L2V natural variant) on HEK293/Stat3-luc/gp130-2X Sort cells (human) (UniProt P40189). Put plainly: FACS, secondary antibody alone on HEK293/gp130 2X Sort cells.
Experiment [9] deals with gp130 expressed endogenously on IMR-32/STAT3-Luc cells (human) (UniProt P40189). The experiment in a line: cell-based or functional assay.
Chain of gp130 expressed endogenously on IMR-32/STAT3-Luc cells (human) (P40189 23-918): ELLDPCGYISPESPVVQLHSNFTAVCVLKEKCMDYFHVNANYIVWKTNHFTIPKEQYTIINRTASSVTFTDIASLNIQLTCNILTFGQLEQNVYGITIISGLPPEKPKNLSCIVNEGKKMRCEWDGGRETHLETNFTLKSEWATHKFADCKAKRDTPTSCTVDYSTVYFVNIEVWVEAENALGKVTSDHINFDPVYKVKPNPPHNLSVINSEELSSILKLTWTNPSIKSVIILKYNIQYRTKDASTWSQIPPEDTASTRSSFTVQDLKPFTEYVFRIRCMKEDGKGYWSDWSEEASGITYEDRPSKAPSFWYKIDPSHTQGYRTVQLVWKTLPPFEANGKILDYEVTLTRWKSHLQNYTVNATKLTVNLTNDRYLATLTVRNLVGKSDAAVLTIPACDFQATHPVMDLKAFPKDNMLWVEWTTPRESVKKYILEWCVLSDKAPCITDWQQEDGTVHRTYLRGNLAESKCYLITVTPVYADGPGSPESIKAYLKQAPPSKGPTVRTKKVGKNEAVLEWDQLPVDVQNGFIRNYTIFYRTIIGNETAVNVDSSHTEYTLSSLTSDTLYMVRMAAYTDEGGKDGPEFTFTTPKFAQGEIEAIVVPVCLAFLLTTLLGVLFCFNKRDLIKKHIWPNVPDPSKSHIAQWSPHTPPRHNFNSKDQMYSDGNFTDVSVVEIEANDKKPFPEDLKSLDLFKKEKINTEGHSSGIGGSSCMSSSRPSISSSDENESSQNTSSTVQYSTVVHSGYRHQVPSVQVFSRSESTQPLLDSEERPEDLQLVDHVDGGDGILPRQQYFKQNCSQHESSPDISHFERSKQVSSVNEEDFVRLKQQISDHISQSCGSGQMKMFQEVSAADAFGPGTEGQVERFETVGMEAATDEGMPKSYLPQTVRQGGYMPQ

Several values for one entry are separate records, joined by “and”; a condition that tells them apart may be missing. Equal values may be shown once.

Chain of wild-type human GP130 on HEK293.STAT3.Luc.GP130 reporter cells (human) (P40189 23-918): as above
Chain of mutant human LEPR (Y1141F) on HEK293.STAT3.Luc.GP130.hLEPR (Y1141F) cells (human) (P48357 22-1165 Y1141F): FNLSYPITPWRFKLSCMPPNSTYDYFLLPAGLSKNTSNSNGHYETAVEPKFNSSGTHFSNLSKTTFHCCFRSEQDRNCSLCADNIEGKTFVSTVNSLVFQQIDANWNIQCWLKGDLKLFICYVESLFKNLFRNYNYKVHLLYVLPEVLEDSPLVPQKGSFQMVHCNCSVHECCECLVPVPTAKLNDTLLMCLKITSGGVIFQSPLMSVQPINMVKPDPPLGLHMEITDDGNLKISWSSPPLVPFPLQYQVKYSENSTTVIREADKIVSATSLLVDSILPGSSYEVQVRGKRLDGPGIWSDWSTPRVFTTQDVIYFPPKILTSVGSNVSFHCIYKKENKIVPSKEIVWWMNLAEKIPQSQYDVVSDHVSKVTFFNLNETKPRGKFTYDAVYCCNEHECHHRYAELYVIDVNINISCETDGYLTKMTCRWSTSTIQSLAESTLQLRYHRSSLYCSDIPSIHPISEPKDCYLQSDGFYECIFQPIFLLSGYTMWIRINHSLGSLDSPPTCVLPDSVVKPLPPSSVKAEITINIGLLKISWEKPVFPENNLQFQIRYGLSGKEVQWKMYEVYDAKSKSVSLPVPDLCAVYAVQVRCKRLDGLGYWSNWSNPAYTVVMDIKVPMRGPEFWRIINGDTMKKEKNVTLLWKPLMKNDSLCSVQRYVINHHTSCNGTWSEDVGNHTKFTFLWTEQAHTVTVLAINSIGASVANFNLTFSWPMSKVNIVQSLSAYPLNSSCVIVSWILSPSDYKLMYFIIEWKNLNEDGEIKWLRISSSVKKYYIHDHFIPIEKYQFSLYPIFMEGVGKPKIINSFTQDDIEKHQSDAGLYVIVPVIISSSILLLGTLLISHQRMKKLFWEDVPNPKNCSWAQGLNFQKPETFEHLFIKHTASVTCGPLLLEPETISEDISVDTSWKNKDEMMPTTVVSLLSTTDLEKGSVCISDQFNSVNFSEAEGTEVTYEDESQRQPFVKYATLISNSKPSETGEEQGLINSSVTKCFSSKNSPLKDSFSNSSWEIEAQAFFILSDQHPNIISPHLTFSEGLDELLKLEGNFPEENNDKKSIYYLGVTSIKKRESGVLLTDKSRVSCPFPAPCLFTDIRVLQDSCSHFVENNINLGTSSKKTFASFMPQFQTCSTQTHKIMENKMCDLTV

“human OSM (R&D Systems, #295-OM/CF) (from UniProt P13725 26-221) (ligand)”: in experiment [1], the EC50 (M), STAT3-luciferase activation of HEK293.STAT3.Luc.GP130.hLEPR (Y1141F) cells was 5.92e-10 M; the EC50 (M), STAT3-luciferase activation of HEK293.STAT3.Luc.GP130.hLEPR (a) cells worked out at 1.21e-10 M; the Percentage activation as compared to hOSM stood at 100%; the Percentage maximum activation as compared to hOSM turned out to be 100%.
For Isotype Control (antibody), the Binding Ratio, normalized to unstained sample (FL4-A) in experiment [2] was found to be 2 fold; in experiment [3] it was 3 fold; in experiment [4] it was 3 fold. The Assay Buffer, % activity in experiment [5] and in [1] was 0% throughout. Also, the RLU, Assay Buffer (no soluble protein) in experiment [5] was 12200 RLU and 12100 RLU; in experiment [1] it was 12200 RLU and 12100 RLU.
For “Alexa Fluor-647 conjugated secondary antibody (Jackson ImmunoResearch Laboratories Inc., #109-607-003)”, the Binding Ratio, normalized to unstained sample (FL4-A) in [6] was found to be 3 fold; in [7] it was 2 fold; in experiment [8], 1 fold.
In turn, “human Oncostatin M (from UniProt P13725 26-221) (ligand)” came in with an EC50 of activation of IMR-32/STAT3-luc cells (STAT3-luciferase) in experiment [9] of 0.054 nM.

(Values after patent publication US20240158497A1.)
